We go through 21 molecules from patent US20200157236A1 (CELLDEX THERAPEUTICS, published 2020).

First the molecules themselves.
B1: Ab390 (antibody, V domains shown)
VH: EVQLVQSGAEVKKPGTSVKLSCKASGYTFTSYWMHWVRQARGQRLEWIGYIKPSSGYTKYAQKFQERVTLTADKSTSTAYMELSSLRSEDTAVYYCARDYYGSSSWFAYWGQGTLVTVSS
VL: EIVMTQSPATLSTSPGERATLSCKASQNVGTNVAWYQQKPGQAPRALIYSASYRYSGVPARFSGSGSGTDFTLTISSVEPEDFAVYYCQQYNSYPYMYTFGQGTKLEIK
notes: humanized
B2: Ab411 (antibody, V domains shown)
VH: QVQLVQSGAEVAKPGTSVKLSCKASGYTFTSYWMHWVKQAPGQGLEWIGYIKPSSGYTKYNQKFKDKVTLTADKSTSTAYMELSSLRSEDTAVYYCARDYYGSSSWFAYWGQGTLVTVSS
VL: EIVMTQSQATLSTSPGERATLSCKASQNVGTNVAWYQQKPGQAPRALIYSASYRYSGVPARFSGSGSGTDFTLTISSVEPEDFAVYYCQQYNSYPYMYTFGQGTKLEIK
notes: humanized
B3: Ab410 (antibody, V domains shown)
VH: EVQLVQSGAEVKKPGSSVKLSCKASGYTFSSYWMHWVKQAPGQGLEWIGYIKPSSGYTKYAQKFQGRVTLTADKSTSTAYMELSSLRSEDTAVYYCARDYYGSSSWFAYWGQGTLVTVSS
VL: EIVMTQSQATMSTSVGERATLSCKASQNVGTNVAWYQQKPGQSPKALIYSASYRYSGVPARFSGSGSGTDFTLTISSVEPEDFAVYYCQQYNSYPYMYTFGQGTKLEIK
notes: humanized
B4: Ab398 (antibody, V domains shown)
VH: EVQLVQSGAEVKKPGSSVKLSCKASGYTFSSYWMHWVKQAPGQGLEWIGYIKPSSGYTKYAQKFQGRVTLTADKSTSTAYMELSSLRSEDTAVYYCARDYYGSSSWFAYWGQGTLVTVSS
VL: EIVMTQSPATLSTSPGERATLSCKASQNVGTNVAWYQQKPGQAPRALIYSASYRYSGVPARFSGSGSGTDFTLTISSVEPEDFAVYYCQQYNSYPYMYTFGQGTKLEIK
notes: humanized
B5: Ab392 (antibody, V domains shown)
VH: EVQLVQSGAEVKKPGASVKLSCKASGYTFTSYWMHWVRQAPGQGLEWIGYIKPSSGYTKYNQKFKDKATLTADKSTSTAYMELRSLRSDDTAVYYCARDYYGSSSWFAYWGQGTLVTVSS
VL: EIVMTQSPATLSTSPGERATLSCKASQNVGTNVAWYQQKPGQAPRALIYSASYRYSGVPARFSGSGSGTDFTLTISSVEPEDFAVYYCQQYNSYPYMYTFGQGTKLEIK
notes: humanized
B6: Ab414 (antibody, V domains shown)
VH: EVQLVQSGAEVKKPGTSVKLSCKASGYTFTSYWMHWVRQARGQRLEWIGYIKPSSGYTKYAQKFQERVTLTADKSTSTAYMELSSLRSEDTAVYYCARDYYGSSSWFAYWGQGTLVTVSS
VL: EIVMTQSQATLSTSPGERATLSCKASQNVGTNVAWYQQKPGQAPRALIYSASYRYSGVPARFSGSGSGTDFTLTISSVEPEDFAVYYCQQYNSYPYMYTFGQGTKLEIK
notes: humanized
B7: Ab404 (antibody, V domains shown)
VH: EVQLVQSGAEVKKPGASVKLSCKASGYTFTSYWMHWVRQAPGQGLEWIGYIKPSSGYTKYNQKFKDKATLTADKSTSTAYMELRSLRSDDTAVYYCARDYYGSSSWFAYWGQGTLVTVSS
VL: EIVMTQSQATMSTSVGERATLSCKASQNVGTNVAWYQQKPGQSPKALIYSASYRYSGVPARFSGSGSGTDFTLTISSVEPEDFAVYYCQQYNSYPYMYTFGQGTKLEIK
notes: humanized
B8: Ab393 (antibody, V domains shown)
VH: EVQLVQSGAEVAKPGASVKLSCKASGYTFTSYWMHWVRQAPGQGLEWIGYIKPSSGYTKYNQKFKDKATLTADKSTSTAYMELRSLRSDDTAVYYCARDYYGSSSWFAYWGQGTLVTVSS
VL: EIVMTQSPATLSTSPGERATLSCKASQNVGTNVAWYQQKPGQAPRALIYSASYRYSGVPARFSGSGSGTDFTLTISSVEPEDFAVYYCQQYNSYPYMYTFGQGTKLEIK
notes: humanized
B9: Ab396 (antibody, V domains shown)
VH: EVQLVQSGAEVKKPGSSVKLSCKASGYTFTSYWMHWVRQAPGQGLEWIGYIKPSSGYTKYNQKFKDKATLTADKSTSTAYMELSSLRSEDTAVYYCARDYYGSSSWFAYWGQGTLVTVSS
VL: EIVMTQSPATLSTSPGERATLSCKASQNVGTNVAWYQQKPGQAPRALIYSASYRYSGVPARFSGSGSGTDFTLTISSVEPEDFAVYYCQQYNSYPYMYTFGQGTKLEIK
notes: humanized
B10: Ab397 (antibody, V domains shown)
VH: EVQLVQSGAEVKKPGSSVKVSCKASGYTFSSYWMHWVRQAPGQGLEWIGYIKPSSGYTKYNQKFKDKATLTADKSTSTAYMELSSLRSEDTAVYYCARDYYGSSSWFAYWGQGTLVTVSS
VL: EIVMTQSPATLSTSPGERATLSCKASQNVGTNVAWYQQKPGQAPRALIYSASYRYSGVPARFSGSGSGTDFTLTISSVEPEDFAVYYCQQYNSYPYMYTFGQGTKLEIK
notes: humanized
B11: Ab413 (antibody, V domains shown)
VH: EVQLVQSGAEVKKPGTSVKLSCKASGYTFTSSAMQWVKQAPGQGLEWIGYIKPSSGYTKYNQKFKDKATLTADKSTSTAYMELSSLRSEDTAVYYCARDYYGSSSWFAYWGQGTLVTVSS
VL: EIVMTQSQATLSTSPGERATLSCKASQNVGTNVAWYQQKPGQAPRALIYSASYRYSGVPARFSGSGSGTDFTLTISSVEPEDFAVYYCQQYNSYPYMYTFGQGTKLEIK
notes: humanized
B12: Ab399 (antibody, V domains shown)
VH: QVQLVQSGAEVAKPGTSVKLSCKASGYTFTSYWMHWVKQAPGQGLEWIGYIKPSSGYTKYNQKFKDKVTLTADKSTSTAYMELSSLRSEDTAVYYCARDYYGSSSWFAYWGQGTLVTVSS
VL: EIVMTQSQATMSTSVGERATLSCKASQNVGTNVAWYQQKPGQSPKALIYSASYRYSGVPARFSGSGSGTDFTLTISSVEPEDFAVYYCQQYNSYPYMYTFGQGTKLEIK
notes: humanized
B13: Ab409 (antibody, V domains shown)
VH: EVQLVQSGAEVKKPGSSVKVSCKASGYTFSSYWMHWVRQAPGQGLEWIGYIKPSSGYTKYNQKFKDKATLTADKSTSTAYMELSSLRSEDTAVYYCARDYYGSSSWFAYWGQGTLVTVSS
VL: EIVMTQSQATMSTSVGERATLSCKASQNVGTNVAWYQQKPGQSPKALIYSASYRYSGVPARFSGSGSGTDFTLTISSVEPEDFAVYYCQQYNSYPYMYTFGQGTKLEIK
notes: humanized
B14: Ab408 (antibody, V domains shown)
VH: EVQLVQSGAEVKKPGSSVKLSCKASGYTFTSYWMHWVRQAPGQGLEWIGYIKPSSGYTKYNQKFKDKATLTADKSTSTAYMELSSLRSEDTAVYYCARDYYGSSSWFAYWGQGTLVTVSS
VL: EIVMTQSQATMSTSVGERATLSCKASQNVGTNVAWYQQKPGQSPKALIYSASYRYSGVPARFSGSGSGTDFTLTISSVEPEDFAVYYCQQYNSYPYMYTFGQGTKLEIK
notes: humanized
B15: Ab394 (antibody, V domains shown)
VH: EVQLVQSGAEVKKPGASVKLSCKASGYTFTSYWMHWVRQAPGQGLEWIGYIKPSSGYTKYAQKLQGRVTLTADKSTSTAYMELRSLRSDDTAVYYCARDYYGSSSWFAYWGQGTLVTVSS
VL: EIVMTQSPATLSTSPGERATLSCKASQNVGTNVAWYQQKPGQAPRALIYSASYRYSGVPARFSGSGSGTDFTLTISSVEPEDFAVYYCQQYNSYPYMYTFGQGTKLEIK
notes: humanized
B16: Ab407 (antibody, V domains shown)
VH: QVQLVQSGAEVAKPGSSVKLSCKASGYTFTSYWMHWVKQAPGQGLEWIGYIKPSSGYTKYNQKFKDKATLTADKSTSTAYMELSSLRSEDTAVYYCARDYYGSSSWFAYWGQGTLVTVSS
VL: EIVMTQSQATMSTSVGERATLSCKASQNVGTNVAWYQQKPGQSPKALIYSASYRYSGVPARFSGSGSGTDFTLTISSVEPEDFAVYYCQQYNSYPYMYTFGQGTKLEIK
notes: humanized
B17: Ab391 (antibody, V domains shown)
VH: QVQLVQSGAEVAKPGASVKLSCKASGYTFTSYWMHWVKQAPGQGLEWIGYIKPSSGYTKYNQKFKDKATLTADKSTSTAYMELRSLRSDDTAVYYCARDYYGSSSWFAYWGQGTLVTVSS
VL: EIVMTQSPATLSTSPGERATLSCKASQNVGTNVAWYQQKPGQAPRALIYSASYRYSGVPARFSGSGSGTDFTLTISSVEPEDFAVYYCQQYNSYPYMYTFGQGTKLEIK
notes: humanized
B18: Ab395 (antibody, V domains shown)
VH: QVQLVQSGAEVAKPGSSVKLSCKASGYTFTSYWMHWVKQAPGQGLEWIGYIKPSSGYTKYNQKFKDKATLTADKSTSTAYMELSSLRSEDTAVYYCARDYYGSSSWFAYWGQGTLVTVSS
VL: EIVMTQSPATLSTSPGERATLSCKASQNVGTNVAWYQQKPGQAPRALIYSASYRYSGVPARFSGSGSGTDFTLTISSVEPEDFAVYYCQQYNSYPYMYTFGQGTKLEIK
notes: humanized
B19: Ab412 (antibody, V domains shown)
VH: EVQLVQSGPEVKKPGTSVKLSCKASGYTFTSYWMHWVRQARGQRLEWIGYIKPSSGYTKYNQKFKDRATLTADKSTSTAYMELSSLRSEDTAVYYCARDYYGSSSWFAYWGQGTLVTVSS
VL: EIVMTQSQATLSTSPGERATLSCKASQNVGTNVAWYQQKPGQAPRALIYSASYRYSGVPARFSGSGSGTDFTLTISSVEPEDFAVYYCQQYNSYPYMYTFGQGTKLEIK
notes: humanized
B20: Ab401 (antibody, V domains shown)
VH: EVQLVQSGAEVKKPGTSVKLSCKASGYTFTSSAMQWVKQAPGQGLEWIGYIKPSSGYTKYNQKFKDKATLTADKSTSTAYMELSSLRSEDTAVYYCARDYYGSSSWFAYWGQGTLVTVSS
VL: EIVMTQSQATMSTSVGERATLSCKASQNVGTNVAWYQQKPGQSPKALIYSASYRYSGVPARFSGSGSGTDFTLTISSVEPEDFAVYYCQQYNSYPYMYTFGQGTKLEIK
notes: humanized
B21: Ab405 (antibody, V domains shown)
VH: EVQLVQSGAEVAKPGASVKLSCKASGYTFTSYWMHWVRQAPGQGLEWIGYIKPSSGYTKYNQKFKDKATLTADKSTSTAYMELRSLRSDDTAVYYCARDYYGSSSWFAYWGQGTLVTVSS
VL: EIVMTQSQATMSTSVGERATLSCKASQNVGTNVAWYQQKPGQSPKALIYSASYRYSGVPARFSGSGSGTDFTLTISSVEPEDFAVYYCQQYNSYPYMYTFGQGTKLEIK
notes: humanized

For this test, the target named is T1, purified ALK protein (BLitz, Table 20) (Homo sapiens (Human), UniProt Q9UM73 19-1038, limits assumed).
T1 construct: also called purified ALK proteins
T1 sequence (Q9UM73 19-1038 limits assumed): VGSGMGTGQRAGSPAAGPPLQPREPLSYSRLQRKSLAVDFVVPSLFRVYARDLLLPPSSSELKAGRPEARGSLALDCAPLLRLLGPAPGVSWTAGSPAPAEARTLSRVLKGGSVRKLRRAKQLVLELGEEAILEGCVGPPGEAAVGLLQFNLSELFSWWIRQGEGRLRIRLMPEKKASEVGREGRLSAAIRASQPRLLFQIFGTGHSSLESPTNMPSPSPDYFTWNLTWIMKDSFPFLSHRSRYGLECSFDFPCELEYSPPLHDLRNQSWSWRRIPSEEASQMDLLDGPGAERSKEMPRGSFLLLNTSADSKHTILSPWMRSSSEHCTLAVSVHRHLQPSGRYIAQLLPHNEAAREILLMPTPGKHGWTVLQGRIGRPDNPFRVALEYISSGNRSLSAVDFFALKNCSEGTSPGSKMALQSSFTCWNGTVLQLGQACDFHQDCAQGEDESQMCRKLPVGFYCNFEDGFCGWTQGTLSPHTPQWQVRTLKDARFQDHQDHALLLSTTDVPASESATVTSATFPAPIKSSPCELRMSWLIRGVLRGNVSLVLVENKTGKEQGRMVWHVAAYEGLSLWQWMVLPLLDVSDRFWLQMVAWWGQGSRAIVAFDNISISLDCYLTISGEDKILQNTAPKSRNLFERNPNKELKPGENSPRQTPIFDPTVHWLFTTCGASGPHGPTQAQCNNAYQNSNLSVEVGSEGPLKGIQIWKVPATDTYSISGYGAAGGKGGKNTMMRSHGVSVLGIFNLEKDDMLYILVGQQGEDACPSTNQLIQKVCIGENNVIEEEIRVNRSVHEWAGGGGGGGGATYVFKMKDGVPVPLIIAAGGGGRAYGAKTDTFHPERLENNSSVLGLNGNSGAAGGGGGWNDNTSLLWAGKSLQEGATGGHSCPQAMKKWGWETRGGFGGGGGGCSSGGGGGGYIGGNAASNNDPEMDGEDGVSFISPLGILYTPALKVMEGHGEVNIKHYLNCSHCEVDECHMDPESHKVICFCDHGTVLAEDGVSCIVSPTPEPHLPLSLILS
The experiment in a line: BLI (BLitz), mAb on Protein A tip, purified ALK in solution. The method, then:
Kinetic measurements of the monovalent affinity of the 96 humanized ALK antibody variants (Ab351-Ab446) were collected. Affinity ranking was performed using a BLitz® System (ForteBio, Menlo Park, Calif.). Humanized anti-ALK antibodies were immobilized at 0.5 mg/mL using Protein A tips. Once baseline stability was ensured, purified ALK proteins at 70 μg/mL were added. The resulting kinetic data were fit to a single binding site equation, from which the quoted monovalent KD values were derived.
As for B1, binding was characterised by a dissociation constant (Kd) of 288 nM. This counts as sub-micromolar.

B2 came in with a Kd of 143 nM. This Kd lies about 2-fold lower than the previous one.

With B3, the affinity, expressed as Kd, was 144 nM.

Turning to B4, the dissociation constant (Kd) came to 221 nM.

Take B5: the affinity, expressed as Kd, was 179 nM. The Kd values of the last two molecules are within 1.5-fold of each other.

Turning to B6, the Kd turned out to be 142 nM.

The molecule B7 showed a Kd of 132 nM.

For the molecule B8, binding was put at a Kd of 186 nM. The Kd values of the last two molecules are within 1.5-fold of each other.

B9 returned a Kd of 176 nM.

In the case of B10, the Kd was found to be 378 nM.

Consider B11, for which the equilibrium dissociation constant (Kd) was 1660 nM.

The molecule B12 gave a Kd of 107 nM.

Take B13: the Kd came out at 208 nM.

Molecule B14 gave a dissociation constant (Kd) of 144 nM. The Kd values of the last two molecules are within 1.5-fold of each other.

B15 displayed a Kd of 157 nM.

Turning to B16, binding was characterised by a dissociation constant (Kd) of 109 nM.

Molecule B17 had a Kd of 175 nM.

With B18, binding was put at a Kd of 132 nM. The Kd values of the last two molecules are within 1.5-fold of each other.

In turn, B19 showed a Kd of 111 nM. This Kd and that of the molecule before are within 1.5-fold of each other.

The molecule B20 registered a Kd of 1060 nM.

The molecule B21 came in with a Kd of 195 nM. Compared with the last molecule, the Kd is about 5.4-fold lower.
